A value given as a limit tells only on which side of the number the result lay.

The record followed here is patent publication US5874287.

For the assay, the target named is G protein alpha subunit of human erythrocyte membranes (human) (UniProt P63092).

In the case of “rCTXA1/T1 (CTXA1 truncated at Trp179) (enzyme)”, the SPECIFIC ACTIVITY FOR HEM G. PROTEIN (ADP-ribosyltransferase, relative) was < 0.01.
